Starred links: 1 amine or outer side, 2 acyl side, 3 side chain; linkers in the order of their positions; H or OH if unused. Positions of bridges follow the written chain, without caps; N, C: chain ends. Non-standard residues stand in square brackets, D forms with d. Primed or numbered codes have the meaning given here. No end group written: not given here. O2beY = O-(2-bromoethyl)-tyrosine (p-2beF), reacts with Cys to form a thioether, O=C([C@H](Cc1ccc(OCCBr)cc1)N[*:1])[*:2]; pCaaF″ = p-(2-chloro-acetamido)-phenylalanine, thioether-linked to Cys, O=C(C[*:3])Nc1ccc(C[C@H](N[*:1])C(=O)[*:2])cc1; pCaaF = p-(2-chloroacetamido)-phenylalanine, O=C(CCl)Nc1ccc(C[C@H](N[*:1])C(=O)[*:2])cc1

From US20250197448A1 (UNIVERSITY OF ROCHESTER, published 2025) come the findings set out here.

Experiment [1] has as its target T1, PD-L1 (Programmed Death-Ligand 1), recombinant, His-tagged (human, UniProt Q9NZQ7 18-134, limits assumed).
T1 construct: Immobilised on microtiter plates
In words: plate binding assay with immobilised PD-L1. How it is done:
After washing (3×150 μL of PBS with 0.05% Tween-20), each well was incubated with 100 μL of purified FLAG-tagged cyclopeptibody at varying concentrations for 1 hour at room temperature. After washing three times with wash buffer, each well was incubated with 100 μL of 1:2500 dilution of HRP-conjugate mouse anti-FLAG polyclonal antibody (Sigma-Aldrich) for 1 hour at room temperature. After washing three times with wash buffer, 100 μL of 2.2 mM o-phenylenediamine dihydrochloride, 4.2 mM urea hydrogen peroxide, 100 mM dibasic sodium phosphate, and 50 mM sodium citrate, pH 5.0, were added to each well, followed by measurement of the absorbance at 450 nm after 10-20 min using a Tecan Infinite 1000 plate reader. Equilibrium dissociation constants (Kp) were determined by fitting the dose-response curves to a 1:1 binding isotherm equation via nonlinear regression. using SigmaPlot. Mean values and standard deviations were calculated from experiments performed in triplicate.
To illustrate this aspect of the invention, a series of PD-L1 targeting cyclopeptibodies were prepared by introducing variable spacer sequences between the cyclic peptide and Fc domain in the PD-L1-targeting cyclopeptibody cRK10-Tras-Fc (Table 1, Entries 31-34; FIG. 20). The spacer sequences included a more flexible (-GSGSGS-), more rigid (-PAPAP-; -EAAAK-) or longer linker (Q12) compared to the exa-glutamine (Q6) spacer sequence in cyclopeptibody cRK10-Tras-Fc.

The target in experiment [2] is T1, PD-L1 (Programmed Death-Ligand 1), …. In words: plate binding assay: immobilised PD-L1, FLAG-tagged binder titrated, HRP anti-FLAG detection. As for the experimental part:
(§1) Streptavidin Binding Assay. For the streptavidin binding assays, streptavidin-coated plates (Sigma-Aldrich) were used. For the Keap1, Shh and PD-L1 binding assay, target protein was immobilized on microtiter plates by incubating 100 μL of a 4 μM protein solution in PBS buffer overnight at 4° C., followed by decanting the protein solution and blocking with 0.5% bovine serum albumin in PBS for 2 h at room temperature. After washing (3×150 μL of PBS with 0.05% Tween-20), each well was incubated with 100 μL of purified FLAG-tagged cyclopeptibody at varying concentrations for 1 hour at room temperature. After washing three times with wash buffer, each well was incubated with 100 μL of 1:2500 dilution of HRP-conjugate mouse anti-FLAG polyclonal antibody (Sigma-Aldrich) for 1 hour at room temperature. After washing three times with wash buffer, 100 μL of 2.2 mM o-phenylenediamine dihydrochloride, 4.2 mM urea hydrogen peroxide, 100 mM dibasic sodium phosphate, and 50 mM sodium citrate, pH 5.0, were added to each well, followed by measurement of the absorbance at 450 nm after 10-20 min using a Tecan Infinite 1000 plate reader. Equilibrium dissociation constants (Kp) were determined by fitting the dose-response curves to a 1:1 binding isotherm equation via nonlinear regression. using SigmaPlot. Mean values and standard deviations were calculated from experiments performed in triplicate.

In experiment [3] the target is T2, streptavidin (UniProt P22629 37-163, limits assumed). In words: plate binding assay: streptavidin-coated plate, FLAG-tagged binder titrated, HRP anti-FLAG detection, 1:1 isotherm fit. The text has this:
The resulting cyclopeptibody (called Strep-m3-Tras-Fc) was expressed, purified, and characterized as described in Example 4. This construct was confirmed to contain the cyclic peptide constrained via O2beY/Cys thioether (i/i-8) linkage, where ‘i’ indicates the position of the non-canonical amino acid O2beY (also refereed to herein as p-2beF). The cyclopeptibody Strep-m3-Tras-Fc was then characterized for its streptavidin binding affinity using a reported in vitro binding assay (Owens et al, ACS Cent Sci. (2020); 6(3):368-381).
Streptavidin Binding Assay. For the streptavidin binding assays, streptavidin-coated plates (Sigma-Aldrich) were used. […] After washing three times with wash buffer, 100 μL of 2.2 mM o-phenylenediamine dihydrochloride, 4.2 mM urea hydrogen peroxide, 100 mM dibasic sodium phosphate, and 50 mM sodium citrate, pH 5.0, were added to each well, followed by measurement of the absorbance at 450 nm after 10-20 min using a Tecan Infinite 1000 plate reader. Equilibrium dissociation constants (Kp) were determined by fitting the dose-response curves to a 1:1 binding isotherm equation via nonlinear regression. using SigmaPlot. Mean values and standard deviations were calculated from experiments performed in triplicate.

Experiment [4] addresses T1, PD-L1 (Programmed Death-Ligand 1), …. In words: competition assay: plate-immobilised PD-L1, competitor biotinylated PD-1 (500 nM), bound PD-1 read with HRP-streptavidin. As for the experimental part:
as §1, with “After washing three times with wash buffer, each well was incubated with 100 μL of 1:2500 dilution of HRP-conjugate mouse anti-FLAG polyclonal antibody (Sigma-Aldrich) for 1 hour at room temperature.” left out
PD-L1 Competition Assay. […] After washing, the bound PD-1 was quantified by means of HRP-conjugate Streptavidin and colorimetric assay as described above. […]

Experiment [5] has as its target T3, PD-L1 on the surface of MDA-MB-231 breast cancer cells (human, UniProt Q9NZQ7 19-290).
T3 construct: whole, on cells; also called PD-L1 receptor on the cancer cells
In words: flow cytometry on MDA-MB-231 cells, 0.09 mg/ml, FITC anti-human IgG Fc secondary. As for the experimental part:
The cells were then incubated with fluorescein-conjugated anti-human IgG Fc antibody and analyzed by flow cytometry. The same experiment was carried out in parallel using commercially available anti-PD-L1 antibody as positive control and various negative controls. […] Several applications for these compounds can be easily envisioned, including detection and/or staining of PD-L1 in vitro and in vivo (e.g., upon conjugation of the cyclopeptibody with a fluorescent dye, IR probe, or PET contrast agent), cell-targeted drug delivery (e.g., upon conjugation of the PD-L1-binding cyclopeptibody with a drug cargo), and use as therapeutic agents in cancer immunotherapy, among others.

Experiment [6] has as its target T2, streptavidin. Put plainly: plate binding assay on streptavidin-coated plates.
The target in experiment [7] is T4, Kelch-like ECH-associated protein 1 (Keap1) (human, UniProt Q14145 321-609, limits assumed). In words: plate binding assay with immobilised Keap1. As for the experimental part:
Keap1 Binding Assay. For the Keap1 binding assay, Keap1 was immobilized on microtiter plates by incubating 100 μL of a 4 μM protein solution in PBS buffer overnight at 4° C., followed by washing (3×150 μL of PBS with 0.5% Tween-20) and blocking with 0.5% bovine serum albumin in PBS for 1.5 h at room temperature. After washing, each well was incubated with 100 μL of purified FLAG-tagged peptide at varying concentrations for 1 hour at room temperature. After washing three times with wash buffer, each well was incubated with 100 μL of 1:2500 dilution of HRP-conjugate mouse anti-FLAG polyclonal antibody (Sigma-Aldrich) for 1 hour at room temperature. After three washing steps with wash buffer, 100 μL of 2.2 mM o-phenylenediamine dihydrochloride, 4.2 mM urea hydrogen peroxide, 100 mM dibasic sodium phosphate, and 50 mM sodium citrate, pH 5.0, were added to each well, followed by measurement of the absorbance at 450 nm after 10-20 min using a Tecan Infinite 1000 plate reader. Equilibrium dissociation constants (KD) were determined by fitting the dose-response curves to a 1:1 binding isotherm equation via nonlinear regression using SigmaPlot. Mean values and standard deviations were calculated from experiments performed in triplicate. […]

The target of experiment [8] is T4, Kelch-like ECH-associated protein 1 …. Put plainly: plate binding assay: immobilised Keap1, FLAG-tagged binder titrated, HRP anti-FLAG detection, 1:1 isotherm fit. As for the experimental part: as §1
A further experiment deals with Sonic Hedgehog (Shh) (human, UniProt Q15465 24-197, limits assumed). In words: plate binding assay: immobilised Shh, FLAG-tagged binder titrated, HRP anti-FLAG detection.

T4 sequence (Q14145 321-609 limits assumed): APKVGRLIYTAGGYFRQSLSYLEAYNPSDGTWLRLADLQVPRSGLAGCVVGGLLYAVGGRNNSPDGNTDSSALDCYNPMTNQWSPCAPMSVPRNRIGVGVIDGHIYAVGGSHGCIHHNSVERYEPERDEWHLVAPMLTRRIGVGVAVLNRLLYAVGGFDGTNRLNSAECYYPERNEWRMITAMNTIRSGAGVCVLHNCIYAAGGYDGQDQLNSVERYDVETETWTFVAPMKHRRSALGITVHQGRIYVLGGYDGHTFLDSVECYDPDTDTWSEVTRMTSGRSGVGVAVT
T1 sequence (Q9NZQ7 18-134 limits assumed): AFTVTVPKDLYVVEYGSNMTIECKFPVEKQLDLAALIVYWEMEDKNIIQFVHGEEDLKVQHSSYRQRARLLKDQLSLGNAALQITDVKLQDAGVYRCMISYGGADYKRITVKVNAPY
T2 sequence (P22629 37-163 limits assumed): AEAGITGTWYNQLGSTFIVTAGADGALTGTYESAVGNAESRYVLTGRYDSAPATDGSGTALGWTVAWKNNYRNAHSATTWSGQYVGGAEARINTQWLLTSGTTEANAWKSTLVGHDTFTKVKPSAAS
T3 sequence (Q9NZQ7 19-290): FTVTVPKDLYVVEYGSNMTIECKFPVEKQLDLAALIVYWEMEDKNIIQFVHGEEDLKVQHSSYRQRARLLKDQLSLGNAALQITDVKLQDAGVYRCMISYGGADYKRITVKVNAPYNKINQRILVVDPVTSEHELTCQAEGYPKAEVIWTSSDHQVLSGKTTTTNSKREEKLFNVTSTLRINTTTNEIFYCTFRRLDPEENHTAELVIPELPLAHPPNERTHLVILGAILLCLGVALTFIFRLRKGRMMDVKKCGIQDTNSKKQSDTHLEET

Take TYLCGAISLA[pCaaF]KAQIKESL (thioether 4-11) [cyclic peptide cRK10 (pCaaF)]: the Kd (commonly a measure of binding affinity in units of concentration) in experiment [1] was determined as 13000 nM.

B1: cRK10 (pCaaF)-Tras-Fc (Fc fusion)
chain: DYKDDDDKGSGSTYLCGAISLA[pCaaF]KAQIKESLQQQQQQ-{Fc-H6}
modifications: thioether 16-23
notes: also called cRK10-Tras-Fc; RK10-Tras-Fc-His
On to B1, for which, in experiment [2], the Kd was 40 nM. For the same molecule, in [1], the Kd turned out to be 42 nM, the “fold higher PD-L1 binding affinity against FLAG-cRK10-Q12-Tras-Fc-His” value is 6 fold and the “fold higher binding affinity against the cyclic peptide cRK10” value was determined as 300 fold. SCWWHPQGD[O2beY] (thioether 2-10; also: as CBD fusion) [cyclic peptide Strep-m3 alone (as CBD fusion)] showed a Kd in the experiment with streptavidin [3] of 50 nM.

B2: cCLP003 (pCaaF)-Tras-Fc (Fc fusion)
chain: DYKDDDDKGSGSWHFS[pCaaF]NWRWLPCQQQQQQ
modifications: thioether 17-24 (inferred); not fully specified (C-terminus)
notes: also called cCLP003-Tras-Fc; cCLP003-Tras-Fc-His
B2: the dissociation constant Kd in experiment [2] is roughly 250 nM. Moreover, the IC50 (commonly the concentration at which inhibition is half-maximal) in experiment [4] was found to be 6000 nM. The “fold increase in affinity against the cyclic peptide alone” value in experiment [1] worked out at 40 fold. Moreover, in experiment [5], the “fold higher MFI against cRK10-Tras-Fc” value came to 4 fold.

B3: Strep-m3-Tras-Fc (Fc fusion)
chain: DYKDDDDKGSGSSCWWHPQGD[O2beY]QQQQQQ-{Fc-H6}
modifications: thioether 14-22; also: dimeric through the Fc
notes: Cyclic peptide fused through a (Gln)6 spacer to human IgG1 Fc; dimeric through the Fc; made in E. coli; also called FLAG-(GS)2-SCWWHPQGDZ-(Q)6-(Fc)^1-H6
Regarding B3, the “fold improved affinity against the same cyclic peptide fused to CBD” value with streptavidin [6] is 1.3 fold. The Kd with streptavidin [3] stood at 37 nM. As for WHFS[pCaaF″]NWRWLPC (thioether 5-12; not fully specified) [cyclic peptide cCLP003 (pCaaF)], in experiment [1], the Kd is roughly 10000 nM and the “fold higher affinity against the linear CLP003 peptide” value was roughly 40 fold.

B4: FLAG-cRK10-Q12-Tras-Fc-His (Fc fusion)
chain: DYKDDDDKGSGSTYLCGAISLA[pCaaF]KAQIKESLQQQQQQQQQQQQ-{Fc-H6}
modifications: thioether 16-23
notes: Spacer variant of cRK10-Tras-Fc (Q12); also called FLAG-(GS)2-TYLCGAISLAZKAQIKESL-(Q)12-(Fc)^1-H6
Regarding B4, the Kd in experiment [1] is 237 nM.

B5: KKD-m1-Tras-Fc (Fc fusion)
chain: DYKDDDDKGSGS[O2beY]DSETGECQQQQQQ-{Fc-H6}
modifications: thioether 13-20; also: dimeric through the Fc
notes: Cyclic peptide fused through a (Gln)6 spacer to human IgG1 Fc; dimeric through the Fc; made in E. coli; also called FLAG-(GS)2-ZDSETGEC-(Q)6-(Fc)^1-H6
As for B5, the “fold improved affinity against the same cyclic peptide fused to CBD” value in experiment [7] was greater than 20 fold. In addition, in experiment [8], the Kd came to 4 nM. In experiment [8], [O2beY]DSETGEC (thioether 1-8; also: as CBD fusion) [cyclic peptide KKD-m1 alone (as CBD fusion)] came in with a dissociation constant (Kd) of 85 nM. As for TLSW[O2beY]EAMDMCTSS (thioether 5-11; also: as CBD fusion) [cyclic peptide L2-m5 alone (as CBD fusion)], the Kd in the experiment with Sonic Hedgehog (Shh) worked out at 388 nM.

B6: FLAG-KKD-m1-KKD-m1-Tras-Fc-His (Fc fusion)
chain: DYKDDDDKGSGSYDSETGECGSGSENLYFQGSGSYDSETGECIEGRGSGS
modifications: thioether (positions not given here); not fully specified (residues 13, 35, C-terminus, bridges); also: two O2beY, each thioether-linked to Cys of its own cyclic peptide, places them at C20 and L27
notes: Two copies of the KKD-m1 cyclic peptide in tandem on each Fc chain; also called polyvalent Keap1-targeting cyclopeptibody
In turn, B6 yielded a Kd in experiment [7] of 45 nM.

B7: FLAG-Strep-m3-Strep-m3-Tras-Fc-His (Fc fusion)
chain: DYKDDDDKGSGSSCWWHPQGD[O2beY]GSGSENLYFQGSGSSCWWHPQGD[O2beY]IEGRGSGS-{Fc-His}
modifications: thioether 14-22, 38-46; not fully specified; also: second O2beY at Y30, thioether-linked to Cys of its own cyclic peptide
notes: Two copies of the Strep-m3 cyclic peptide in tandem on each Fc chain; also called polyvalent streptavidin-targeting cyclopeptibody
On to B7, for which binding with streptavidin [6] was characterised by a dissociation constant (Kd) of 56 nM.
